For eight substances, Bioactivity (CCL4 release) and Bioactivity (binding) results are on record in US20190361034A1.

Assay [1] has as its target MHC class II molecules on MHC class II-expressing Raji cells (human). The assay is described as follows: cell-based or functional assay.
Assay [2] has the same target. Put plainly: BLI; immobilised sample, Raji cells in solution; FIG. 24. (In general: Biolayer interferometry detects binding as a change in optical thickness at a sensor tip.)
The target is the same in assay [3]. The assay is described as follows: BLI; immobilised sample, Raji cells in solution; FIG. 23.

On to “IMP321, Acid pH 3.0 at RT (1 D = 1 day) (Fc fusion)”, for which, in assay [1], the Bioactivity (CCL4 release) was 7%. In assay [1], “IMP321, Light, 10 D = 10 days (Fc fusion)” registered a Bioactivity (CCL4 release) of 73%. The substance also showed a Bioactivity (binding) in assay [2] of 75%. “IMP321, Alkali pH 9.2 at 37° C. (1 D = 1 day) (Fc fusion)”: the Bioactivity (CCL4 release) in assay [1] was found to be 17%. In assay [1], “IMP321 Oxidation, 0.1% H2O2 at 37° C. (1 D = 1 day) (Fc fusion)” registered a Bioactivity (CCL4 release) of 21%.

Regarding “IMP321 Oxidation, 1% H2O2 at 37° C. (1 D = 1 day) (Fc fusion)”, the Bioactivity (CCL4 release) in assay [1] is 10%.

As to “IMP321, Acid pH 3.1 at RT (1 D = 1 day) (Fc fusion)”, in assay [1], the Bioactivity (CCL4 release) came out at 15%. Same read-out and setting: the figure for “IMP321, Acid pH 3.6 at RT (1 D = 1 day) (Fc fusion)” is 29%.

As to IMP321, Light, 5 D = 5 days (Fc fusion), the Bioactivity (CCL4 release) in assay [1] came out at 87%. Also, the Bioactivity (binding) in assay [3] came out at 74%.
